Data published in US20080220446A1, “Method for Detecting and/or Removing Protein and/or Peptide Comprising a Cross-Beta Structure From an Aqueous Solution Comprising a Protein” (priority 2005, published 2008).

What was measured:
factor XII = target: T1, factor XII (Homo sapiens, UniProt P00748); test: ELISA, binding of β2GPI to immobilized factor XII
T1 construct: purified human factor XII from plasma (Calbiochem); purchased Calbiochem; host or cells: human plasma
T1 sequence (P00748 20-615): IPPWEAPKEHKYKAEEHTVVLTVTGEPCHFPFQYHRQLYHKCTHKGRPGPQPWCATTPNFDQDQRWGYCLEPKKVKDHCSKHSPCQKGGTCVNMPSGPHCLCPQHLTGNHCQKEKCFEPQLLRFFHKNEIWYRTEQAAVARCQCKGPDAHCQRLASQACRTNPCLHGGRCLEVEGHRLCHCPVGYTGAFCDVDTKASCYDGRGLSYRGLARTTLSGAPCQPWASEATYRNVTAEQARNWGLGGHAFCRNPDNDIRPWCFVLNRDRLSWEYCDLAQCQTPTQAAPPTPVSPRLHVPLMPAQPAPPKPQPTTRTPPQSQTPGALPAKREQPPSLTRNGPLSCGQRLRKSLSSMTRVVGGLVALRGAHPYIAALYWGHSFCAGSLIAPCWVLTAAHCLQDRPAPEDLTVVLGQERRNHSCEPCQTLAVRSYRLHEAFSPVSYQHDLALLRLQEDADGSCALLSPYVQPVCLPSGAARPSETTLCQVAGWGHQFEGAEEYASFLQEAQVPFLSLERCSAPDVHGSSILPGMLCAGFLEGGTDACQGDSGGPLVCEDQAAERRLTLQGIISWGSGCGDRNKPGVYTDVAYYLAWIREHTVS
Experimental: (§1) Binding of purified human factor XII from plasma (Calbiochem) or of purified recombinant human tPA to β2GPI purified from human plasma, or to recombinant human β2GPI was tested in an ELISA. Ten μg of factor XII or tPA in PBS was coated onto wells of a Costar 2595 ELISA plate (Cambridge, USA) and incubated with concentration series of the two β2GPI preparations. Binding of β2GPI was assessed with monoclonal antibody 2B2^22.

tPA = tPA (Homo sapiens, UniProt P00750); test: ELISA, binding of β2GPI to immobilized tPA
Experimental: as §1

Fn F4-5 = target: T2, Fn F4-5 (Homo sapiens, UniProt P02751); test: Biacore surface plasmon resonance, binding to immobilized Fn F4-5
T2 construct: amino-acids NH2—I182-V276-COOH of Fn F4-5; made in house; host or cells: Saccharomyces cerevisiae
Experimental: Binding of cross-β structure containing peptides/proteins was studied using surface plasmon resonance technology with a Biacore 2000 apparatus (Biacore AB, Uppsala, Sweden). A standardized amine coupling procedure was used to couple proteins with F domains to a CM5 chip (Biacore AB, Uppsala, Sweden). First, the dextran surface of the chips was activated by a 35 μl injection with a 1:1 mixture of 0.1 M N-hydroxysuccinimide (NHS) and 0.4 M N-ethyl-N′-(dimethylaminopropyl)carbodiimide (EDC) at a flow rate of 5 μl min.^−1. Then, the proteins were covalently coupled to the activated dextran surface. Remaining activated groups in each of the four flow channels were blocked by injection of 35 μl of 1 M ethanolamine hydrochloride pH 8.5. EDC, NHS and ethanolamine hydrochloride were obtained from Biacore. On one chip, on channels 1 to 4, buffer (reference channel), the soluble extracellular part of receptor for advanced glycation endproducts (sRAGE), tPA and K2P-tPA were immobilized. […] Binding of albumin-AGE was determined with a solution of 3.9 μg ml^−1 albumin-AGE in running buffer. albumin-AGE was filtered on a Millex-GV 0.22 μm filter unit (Millipore). […] Binding of Hb-AGE was also tested after centrifugation for 10 min. at 16,000*g alternative to filtration. tPA activation before and after filtration was assessed with a Plg-activation assay. […]

T2 sequence (P02751 182-276): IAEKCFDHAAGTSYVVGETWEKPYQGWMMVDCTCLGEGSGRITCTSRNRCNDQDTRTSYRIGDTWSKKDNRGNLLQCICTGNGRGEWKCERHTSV
Sequence of tPA (P00750 36-562): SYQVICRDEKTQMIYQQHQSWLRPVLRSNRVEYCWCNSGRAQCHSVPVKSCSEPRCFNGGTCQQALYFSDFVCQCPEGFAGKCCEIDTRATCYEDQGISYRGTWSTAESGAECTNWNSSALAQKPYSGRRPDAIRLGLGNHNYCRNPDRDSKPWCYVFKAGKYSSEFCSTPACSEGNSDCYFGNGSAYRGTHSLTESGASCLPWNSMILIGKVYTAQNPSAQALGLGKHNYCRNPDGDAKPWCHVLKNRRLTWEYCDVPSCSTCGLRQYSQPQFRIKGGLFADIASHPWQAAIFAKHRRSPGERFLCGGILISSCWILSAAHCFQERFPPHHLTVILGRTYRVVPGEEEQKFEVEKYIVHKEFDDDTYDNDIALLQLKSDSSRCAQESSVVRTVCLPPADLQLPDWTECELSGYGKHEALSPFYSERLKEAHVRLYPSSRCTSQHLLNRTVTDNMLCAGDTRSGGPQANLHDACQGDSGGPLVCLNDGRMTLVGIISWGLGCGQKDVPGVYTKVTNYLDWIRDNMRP

B1: recombinant β2GPI: recombinant human β2-glycoprotein I made using insect cells (protein)
chain: GRTCPKPDDLPFSTVVPLKTFYEPGEEITYSCKPGYVSRGGMRKFICPLTGLWPINTLKCTPRVCPFAGILENGAVRYTTFEYPNTISFSCNTGFYLNGADSAKCTEEGKWSPELPVCAPIICPPPSIPTFATLRVYKPSAGNNSLYRDTAVFECLPQHAMFGNDTITCTTHGNWTKLPECREVKCPFPSRPDNGFVNYPAKPTLYYKDKATFGCHDGYSLDGPEEIECTKLGNWSAMPSCKASCKVPVKKATVVYQGERVKIQEKFKNGMLHGDKVSFFCKNKEKKCSYTEDAQCIDGTIEVPKCFKEHSSLAFWKTDASDVKPC
Factor XII
  binding to factor XII: bind
tPA
  binding to tPA: bind
Fn F4-5; Biacore, native Hb at 25 nM
  binding to the Fn F4-5 doublet: bound
Fn F4-5; immobilized Fn F4-5, Biacore CM5 chip, read-out: concentration of ligand that results in half maximum binding to Fn F4-5
  Kd: 165 nM
